Measured values from patent publication US20210024620A1.

Tests used:
[1] = target: FcRn immobilised on the FcRn affinity column (biotinylated cynoFcRn in one experiment, biotinylated hFcRn in another); assay: FcRn affinity chromatography, linear pH gradient; species of the immobilised FcRn not given
rat FcRn (rat) [2] = target: rat FcRn (rat) (UniProt P13599); assay: Biacore SPR, pH 6.0
rat FcRn (rat) [3] = target: rat FcRn (rat) (UniProt P13599); assay: Biacore SPR, pH 7.4, 1000 nM antibody
[4] = target: biotinylated human FcRn (human) (UniProt P55899); assay: Biacore SPR, pH 7.4, 1000 nM antibody
Sequence of biotinylated human FcRn (human) (P55899 24-297 limits assumed, chain 1 of 2): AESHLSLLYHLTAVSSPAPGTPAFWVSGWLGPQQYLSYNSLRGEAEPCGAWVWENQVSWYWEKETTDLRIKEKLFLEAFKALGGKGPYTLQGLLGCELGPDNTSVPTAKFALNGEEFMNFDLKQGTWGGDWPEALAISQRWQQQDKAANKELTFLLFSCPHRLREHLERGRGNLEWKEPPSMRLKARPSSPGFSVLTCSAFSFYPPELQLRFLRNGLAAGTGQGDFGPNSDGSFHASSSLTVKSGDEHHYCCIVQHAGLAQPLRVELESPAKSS
Sequence of biotinylated human FcRn (human) (P61769 21-119 limits assumed, chain 2 of 2, further chain): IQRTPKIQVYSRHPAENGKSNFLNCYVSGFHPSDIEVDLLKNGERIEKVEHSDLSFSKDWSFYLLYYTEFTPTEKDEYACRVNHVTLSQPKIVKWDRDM

rat FcRn (rat) [5] = target: rat FcRn (rat) (UniProt P13599); assay: Biacore, pH 6.0, apparent KD
[6] = target: biotinylated human FcRn (p51 subunit residues 24-297 with C-terminal Avi-tag; beta2-microglobulin residues 21-119) (human) (UniProt P55899); assay: Biacore SPR, pH 6.0
Sequence of biotinylated human FcRn (p51 subunit residues 24-297 with C-terminal Avi-tag; beta2-microglobulin residues 21-119) (human) (P55899 24-297 limits assumed, chain 1 of 2): as the sequence (P55899 24-297 limits assumed, chain 1 of 2) above
Sequence of biotinylated human FcRn (p51 subunit residues 24-297 with C-terminal Avi-tag; beta2-microglobulin residues 21-119) (human) (P61769 21-119 limits assumed, chain 2 of 2, further chain): as the sequence (P61769 21-119 limits assumed, chain 2 of 2, further chain) above

[7] = target: biotinylated human FcRn (p51 subunit residues 24-297 with C-terminal Avi-tag; beta2-microglobulin residues 21-119) (human) (UniProt P55899); assay: Biacore SPR, pH 7.4, steady state
[8] = target: biotinylated human FcRn (p51 subunit residues 24-297 with C-terminal Avi-tag; beta2-microglobulin residues 21-119) (human) (UniProt P55899); assay: Biacore; affinity at pH 6.0 (M^-1) over steady state RU at pH 7.4
[9] = target: biotinylated human FcRn (p51 subunit residues 24-297 with C-terminal Avi-tag; beta2-microglobulin residues 21-119) (human) (UniProt P55899); assay: Biacore; inverse ratio (RU at pH 7.4 over affinity at pH 6.0)
[10] = target: biotinylated human FcRn (human) (UniProt P55899); assay: Biacore SPR, pH 6.0
rat FcRn (rat) [11] = target: rat FcRn (rat) (UniProt P13599); assay: Biacore SPR, pH 7.4
[12] = target: biotinylated human FcRn (human) (UniProt P55899); assay: Biacore SPR, pH 7.4

Sequence of rat FcRn (rat) (P13599 23-298 limits assumed, chain 1 of 2): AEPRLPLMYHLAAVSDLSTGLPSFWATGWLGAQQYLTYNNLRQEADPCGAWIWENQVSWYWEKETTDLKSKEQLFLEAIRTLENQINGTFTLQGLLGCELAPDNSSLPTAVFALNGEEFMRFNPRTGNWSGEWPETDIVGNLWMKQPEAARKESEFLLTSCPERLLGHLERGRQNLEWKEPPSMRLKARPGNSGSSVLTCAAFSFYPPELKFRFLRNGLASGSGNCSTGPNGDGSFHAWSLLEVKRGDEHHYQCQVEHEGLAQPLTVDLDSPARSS
Sequence of rat FcRn (rat) (P07151 21-119 limits assumed, chain 2 of 2, further chain): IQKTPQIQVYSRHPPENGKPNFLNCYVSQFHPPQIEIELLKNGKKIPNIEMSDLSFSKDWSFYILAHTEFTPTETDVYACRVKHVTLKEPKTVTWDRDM

Substance | FcRn affinity column elution pH [1] | Kd (rat FcRn (rat) [2]) | Steady State RU (rat FcRn (rat) [3]) | Steady State RU [4] | Kd (rat FcRn (rat) [5]) | Ka [6] | Steady State Binding, pH 7.4 (RU) [7] | Ratio (pH 6.0/pH 7.4) [8] | Ratio [9] | koff (rat FcRn (rat) [2]) | kon (rat FcRn (rat) [2]) | Kd [10] | koff [10] | kon [10] | Steady State RU (rat FcRn (rat) [11]) | Steady State RU [12] | Ratio (pH 6.0/pH 7.4) [9]
mAb1 E380C (antibody) | 7.18 pH | 6.31 µM | 27.7 RU | 5.7 RU | 6.31 µM |  |  |  |  |  |  |  |  |  |  |  | 
mAb1 K288N (antibody) | 7.39 pH | 0.19 µM | 20.4 RU |  | 0.19 µM |  |  |  |  |  |  |  |  |  |  |  | 
mAb1 MDQF (T256D/T307Q/N434F) (antibody) |  |  |  |  |  | 6.62e+06 M⁻¹ | 55.3 RU |  |  |  |  |  |  |  |  |  | 
mAb1 MDQY (T256D/T307Q/N434Y) (antibody) |  |  |  |  |  | 3.69e+07 M⁻¹ | 49.4 RU | 747000 | 1.34e-06 |  |  |  |  |  |  |  | 
mAb1 MDTF (T256D/N434F) (antibody) |  | 0.00178 µM |  |  |  | 3.34e+07 M⁻¹ | 29.2 RU | 1.14e+06 |  | 0.00039 s⁻¹ | 218000 M⁻¹ s⁻¹ | 0.0299 µM | 0.029 s⁻¹ | 968000 M⁻¹ s⁻¹ | 63 RU | 29.2 RU | 8.74e-07
mAb1 MDTY (T256D/N434Y) (antibody) |  | 0.0006 µM |  |  |  | 6.41e+07 M⁻¹ | 37.1 RU | 1.73e+06 |  | 0.00025 s⁻¹ | 413000 M⁻¹ s⁻¹ | 0.0156 µM | 0.0285 s⁻¹ | 1.83e+06 M⁻¹ s⁻¹ | 71.6 RU | 37.1 RU | 
mAb1 MDWF (T256D/T307W/N434F) (antibody) |  |  |  |  |  | 2.81e+07 M⁻¹ | 47.1 RU | 597000 |  |  |  |  |  |  |  |  | 1.68e-06
mAb1 MEQF (T256E/T307Q/N434F) (antibody) |  |  |  |  |  | 142000 M⁻¹ |  |  |  |  |  |  |  |  |  |  | 
mAb1 MEQN (T256E/T307Q) (antibody) |  | 0.0107 µM |  |  |  | 2e+06 M⁻¹ |  |  |  |  |  | 0.499 µM |  |  | 23.4 RU |  | 
mAb1 MEQY (T256E/T307Q/N434Y) (antibody) |  |  |  |  |  | 2.38e+07 M⁻¹ | 38.6 RU | 617000 |  |  |  |  |  |  |  |  | 
mAb1 METF (T256E/N434F) (antibody) |  | 0.00753 µM |  |  |  | 1.28e+07 M⁻¹ | 23.3 RU | 549000 | 1.82e-06 | 0.00081 s⁻¹ | 108000 M⁻¹ s⁻¹ | 0.0782 µM | 0.0419 s⁻¹ | 536000 M⁻¹ s⁻¹ | 59 RU | 23.3 RU | 
mAb1 METY (T256E/N434Y) (antibody) |  | 0.00771 µM |  |  |  | 1.6e+07 M⁻¹ | 26.8 RU | 597000 |  | 0.00098 s⁻¹ | 127000 M⁻¹ s⁻¹ | 0.0626 µM | 0.0393 s⁻¹ | 628000 M⁻¹ s⁻¹ | 62.2 RU | 26.8 RU | 
mAb1 MEWF (T256E/T307W/N434F) (antibody) |  |  |  |  |  | 5.62e+07 M⁻¹ | 41.9 RU | 1.34e+06 |  |  |  |  |  |  |  |  | 7.46e-07
mAb1 MEWN (T256E/T307W) (antibody) |  | 0.0106 µM |  |  |  | 3.1e+06 M⁻¹ |  |  |  |  |  | 0.323 µM |  |  | 33 RU |  | 
mAb1 MEWY (T256E/T307W/N434Y) (antibody) |  |  |  |  |  | 7.04e+07 M⁻¹ | 46.6 RU | 1.51e+06 |  |  |  |  |  |  |  |  | 6.62e-07
mAb1 MTQF (T307Q/N434F) (antibody) |  | 0.00389 µM |  |  |  | 2.33e+07 M⁻¹ | 34.2 RU | 681000 |  | 0.0004 s⁻¹ | 104000 M⁻¹ s⁻¹ | 0.0429 µM | 0.0246 s⁻¹ | 574000 M⁻¹ s⁻¹ | 62.5 RU | 34.2 RU | 1.47e-06
mAb1 MTQY (T307Q/N434Y) (antibody) |  | 0.00411 µM |  |  |  | 3.09e+07 M⁻¹ | 38.4 RU | 805000 |  | 0.00048 s⁻¹ | 116000 M⁻¹ s⁻¹ | 0.0324 µM | 0.0202 s⁻¹ | 622000 M⁻¹ s⁻¹ | 63 RU | 38.4 RU | 1.24e-06
mAb1 MTWF (T307W/N434F) (antibody) |  | 0.0027 µM |  |  |  | 2.62e+07 M⁻¹ | 30.5 RU |  |  | 0.00057 s⁻¹ |  | 0.0382 µM |  |  | 65.1 RU | 30.5 RU | 
mAb1 MTWY (T307W/N434Y) (antibody) |  | 0.00062 µM |  |  |  | 4.65e+07 M⁻¹ | 37.2 RU | 1.25e+06 |  | 0.0003 s⁻¹ | 480000 M⁻¹ s⁻¹ | 0.0215 µM | 0.0317 s⁻¹ | 1.48e+06 M⁻¹ s⁻¹ | 69.6 RU | 37.2 RU | 8e-07
mAb1 YDTF (M252Y/T256D/N434F) (antibody) |  |  |  |  |  | 2.96e+07 M⁻¹ | 57.7 RU | 513000 |  |  |  |  |  |  |  |  | 1.95e-06
mAb1 YDWN (M252Y/T256D/T307W) (antibody) |  |  |  |  |  | 1.01e+07 M⁻¹ | 25.9 RU | 390000 |  |  |  |  |  |  |  |  | 2.56e-06
mAb1 YETY (M252Y/T256E/N434Y) (antibody) |  |  |  |  |  | 3.34e+07 M⁻¹ | 22.6 RU | 1.48e+06 |  |  |  |  |  |  |  |  | 6.77e-07
mAb1 YEWN (M252Y/T256E/T307W) (antibody) |  |  |  |  |  | 6.41e+06 M⁻¹ | 69.6 RU | 92100 |  |  |  |  |  |  |  |  | 1.09e-05
mAb1 YTQF (M252Y/T307Q/N434F) (antibody) |  |  |  |  |  | 5.65e+07 M⁻¹ | 59.9 RU | 943000 |  |  |  |  |  |  |  |  | 1.06e-06
mAb1 YTQN (M252Y/T307Q) (antibody) |  | 0.00411 µM |  |  |  | 3.6e+06 M⁻¹ | 10.6 RU | 340000 |  | 0.00105 s⁻¹ | 255000 M⁻¹ s⁻¹ | 0.278 µM | 0.096 s⁻¹ | 345000 M⁻¹ s⁻¹ | 49.2 RU | 10.6 RU | 2.94e-06
mAb1 YTQY (M252Y/T307Q/N434Y) (antibody) |  |  |  |  |  | 6.33e+07 M⁻¹ | 71.5 RU | 885000 |  |  |  |  |  |  |  |  | 1.13e-06
mAb1 YTTF (M252Y/N434F) (antibody) |  | 0.00029 µM |  |  |  | 5.56e+07 M⁻¹ | 43.8 RU | 1.27e+06 | 7.88e-07 | 0.00012 s⁻¹ | 403000 M⁻¹ s⁻¹ | 0.018 µM | 0.023 s⁻¹ | 1.27e+06 M⁻¹ s⁻¹ | 79.3 RU | 43.8 RU | 
mAb1 YTWF (M252Y/T307W/N434F) (antibody) |  |  |  |  |  | 6.54e+07 M⁻¹ | 62.6 RU | 1.04e+06 |  |  |  |  |  |  |  |  | 9.57e-07
